# Results from paper PMC2670979 (2009).
# B1: GST-Miro1 WT [not stated] / TRAK2 (amino acids 476–700) [modified: 35S-methionine label; 35S-methionine label] [not stated] (parent complex)
# chain 1: MKKDVRILLVGEPRVGKTSLIMSLVSEEFPEEVPPRAEEITIPADVTPERVPTHIVDYSEAEQSDEQLHQEISQANVICIVYAVNNKHSIDKVTSRWIPLINERTDKDSRLPLILVGNKSDLVEYSSMETILPIMNQYTEIETCVECSAKNLKNISELFYYAQKAVLHPTGPLYCPEEKEMKPACIKALTRIFKISDQDNDGTLNDAELNFFQRICFNTPLAPQALEDVKNVVRKHISDGVADSGLTLKGFLFLHTLFIQRGRHETTWTVLRRFGYDDDLDLTPEYLFPLLKIPPDCTTELNHHAYLFLQSTFDKHDLDRDCALSPDELKDLFKVFPYIPWGPDVNNTVCTNERGWITYQGFLSQWTLTTYLDVQRCLEYLGYLGYSILTEQESQASAVTVTRDKKIDLQKKQTQRNVFRCNVIGVKNCGKSGVLQALLGRNLMRQKKIREDHKSYYAINTVYVYGQEKYLLLHDISESEFLTEAEIICDVVCLVYDVSNPKSFEYCARIFKQHFMDSRIPCLIVAAKSDLHEVKQEYSISPTDFCRKHKMPPPQAFTCNTADAPSKDIFVKLTTMAMYPHVTQADLKSSTFWLRASFGATVFAVLGFAMYKALLKQR
# chain 2: EDSDLATALHRLSLRRQNYLSEKQFFAEEWERKLQILAEQEEEVSSCEALTENLASFCTDQSETTELGSAGCLRGFMPEKLQIVKPLEGSQTLHHWQQLAQPNLGTILDPRPGVITKGFTQMPKDAVYHISDLEEDEEVGITFQVQQPLQLEQKPAPPPPVTGIFLPPMTSAGGPVSVATSNPGKCLSFTNSTFTFTTCRILHPSDITQVTPSSGFPSLSCGSSA
# Variants of: B1
# Test: GST pull-down of in vitro translated 35S-labeled protein; 2 mM Ca2+; normalized to 100 at 0 mM Ca2+; parent: 110; read off a plot
row,screen value,Variant
1,~120,"chain 1 E208K, chain 1 E328K"
